These results are taken from the RNAGym collection of RNA variant scans (doi:10.7554/elife.80360).

B1: Hammerhead Ribozyme (parent)
chain: ACCGGAUGUGCUUUCCGGUCUGAUGAGUCCGUGAGGACGAAACAG

The variants in the data set derive from B1. Description: self-cleavage, relative activity (ratio to wild type); higher = more cleavage; co-transcriptional.
In the case of U28A A41U, the self-cleavage was determined as 0.303.

U28A A41G: the self-cleavage turned out to be 0.398.

U28A A41C: the self-cleavage is 0.277.

Take U28A G35U: the self-cleavage amounted to 0.489.

For U28A G35C, the self-cleavage came to 0.435.

As for U28A G35A, the self-cleavage turned out to be 0.405.

On to U28A A44C, for which the self-cleavage came out at 0.38.

In the case of U28A A44U, the self-cleavage is 0.402.

Regarding U28A A44G, the self-cleavage came out at 0.596.

In the case of U28G A44G, the self-cleavage worked out at 0.673.

As to U28G A44U, the self-cleavage came to 0.397.

As to U28G A44C, the self-cleavage was 0.371.

Turning to C29U A42U, the self-cleavage was found to be 0.367.

In the case of C29U A42C, the self-cleavage turned out to be 0.326.

In the case of C29U A42G, the self-cleavage was determined as 0.283.

In the case of C29G G31C, the self-cleavage was found to be 0.74.

In the case of C29G G31U, the self-cleavage is 0.777.

As to C29G G31A, the self-cleavage turned out to be 1.01.

As for C29G A40U, the self-cleavage was 0.325.

On to C29G A40G, for which the self-cleavage is 0.238.

Consider C29G A40C, for which the self-cleavage was found to be 0.288.

As for C29A G39A, the self-cleavage was determined as 0.356.

Consider C29A G39U, for which the self-cleavage was determined as 0.387.

Regarding C29A G39C, the self-cleavage is 0.326.

As to U28A A42U, the self-cleavage was determined as 0.341.

For U28A A42C, the self-cleavage worked out at 0.335.

In the case of U28A A42G, the self-cleavage is 0.25.

Turning to C29U A41G, the self-cleavage came out at 0.275.

As to C29U A41U, the self-cleavage is 0.337.

Turning to C29U A41C, the self-cleavage was 0.319.

As for C29G G39C, the self-cleavage came out at 0.317.

As to C29G G39A, the self-cleavage worked out at 0.324.

As for C29G G39U, the self-cleavage is 0.334.

Turning to C29G G33U, the self-cleavage worked out at 0.664.

Consider C29G G33A, for which the self-cleavage was 0.788.

C29G G33C: the self-cleavage was determined as 0.654.

For C29A A37U, the self-cleavage was 0.703.

In the case of C29A A37C, the self-cleavage is 0.755.

For the variant C29A A37G, the self-cleavage is 0.692.

In the case of C29U U32C, the self-cleavage was found to be 0.843.

For C29U U32G, the self-cleavage amounted to 1.06.

In the case of C29U U32A, the self-cleavage was 0.902.

U28A G45A: the self-cleavage was 0.436.

In the case of U28A G45U, the self-cleavage was determined as 0.496.

U28A G45C: the self-cleavage was determined as 0.365.

Regarding C29A G36U, the self-cleavage stood at 0.624.

With C29A G36C, the self-cleavage was 0.718.

On to C29A G36A, for which the self-cleavage stood at 0.665.

As to U28C U32C, the self-cleavage is 1.

U28C U32G: the self-cleavage amounted to 0.556.

With U28C U32A, the self-cleavage came to 0.984.

Take C29G A34U: the self-cleavage came out at 0.748.

As to C29G A34G, the self-cleavage worked out at 0.446.

Regarding C29G A34C, the self-cleavage amounted to 0.56.

Consider U28C, for which the self-cleavage was 1.08.

Regarding U28G, the self-cleavage came to 0.873.

Regarding C30A G35U, the self-cleavage was 1.17.

As for C30A G35A, the self-cleavage amounted to 0.765.

For the variant C30A G35C, the self-cleavage turned out to be 0.793.

For C29U A37C, the self-cleavage is 0.93.

C29U A37G: the self-cleavage amounted to 0.751.

With C29U A37U, the self-cleavage stood at 0.371.

Consider C29G A41C, for which the self-cleavage came to 0.269.

Turning to C29G A41G, the self-cleavage worked out at 0.338.

For C29G A41U, the self-cleavage amounted to 0.29.

As to U28C A40U, the self-cleavage was determined as 0.307.

For the variant U28C A40C, the self-cleavage was determined as 0.44.

In the case of U28C A40G, the self-cleavage turned out to be 0.356.

Consider U28G C30U, for which the self-cleavage was 0.83.

In the case of U28G C30A, the self-cleavage came out at 0.408.

On to U28G C30G, for which the self-cleavage is 0.315.

For the variant C29A A34U, the self-cleavage was determined as 0.563.

For the variant C29A A34C, the self-cleavage came out at 0.494.

C29A A34G: the self-cleavage was 0.518.

In the case of C29U C30A, the self-cleavage is 0.609.

Take C29U C30G: the self-cleavage is 0.546.

Consider C29U C30U, for which the self-cleavage came to 0.656.

For U28C C29A, the self-cleavage is 0.688.

Consider U28C C29U, for which the self-cleavage amounted to 0.688.

As to U28C C29G, the self-cleavage was determined as 0.583.

Consider C30A A41C, for which the self-cleavage was 0.423.

As for C30A A41U, the self-cleavage came out at 0.377.

Regarding C30A A41G, the self-cleavage came to 0.347.

Take U28C A44C: the self-cleavage was 0.497.

As for U28C A44U, the self-cleavage is 0.599.

As to U28C A44G, the self-cleavage came out at 1.11.

As to C30A C38G, the self-cleavage was found to be 0.48.

Turning to C30A C38U, the self-cleavage turned out to be 0.743.

Turning to C30A C38A, the self-cleavage is 0.386.

For the variant U28A A37U, the self-cleavage turned out to be 0.895.

Consider U28A A37C, for which the self-cleavage is 0.398.

For U28A A37G, the self-cleavage was 0.325.

For the variant C29U C43U, the self-cleavage came out at 0.47.

For C29U C43G, the self-cleavage amounted to 0.319.

Turning to C29U C43A, the self-cleavage is 0.337.

As to U28G G45U, the self-cleavage turned out to be 0.527.

On to U28G G45A, for which the self-cleavage amounted to 0.418.

Turning to U28G G45C, the self-cleavage turned out to be 0.412.

With U28G G33A, the self-cleavage was 1.02.

On to U28G G33C, for which the self-cleavage was found to be 1.2.

For the variant U28G G33U, the self-cleavage was 0.972.

With U28G G35U, the self-cleavage stood at 0.58.

U28G G35A: the self-cleavage amounted to 0.384.

With U28G G35C, the self-cleavage stood at 0.562.

With U28G G31U, the self-cleavage stood at 0.932.

As for U28G G31A, the self-cleavage is 0.85.

Regarding U28G G31C, the self-cleavage stood at 0.987.

As for U28C C43U, the self-cleavage worked out at 0.405.

For U28C C43A, the self-cleavage came to 0.289.

With U28C C43G, the self-cleavage came to 0.334.

For the variant C29G C30U, the self-cleavage was determined as 0.693.

On to C29G C30A, for which the self-cleavage turned out to be 0.432.

C29G C30G: the self-cleavage came to 0.476.

On to U28C G35U, for which the self-cleavage came out at 0.431.

Take U28C G35C: the self-cleavage turned out to be 0.534.

Regarding U28C G35A, the self-cleavage was 0.638.

Consider U28A G36U, for which the self-cleavage stood at 0.438.

Take U28A G36A: the self-cleavage came out at 0.339.

Regarding U28A G36C, the self-cleavage worked out at 0.396.

With C29U A34C, the self-cleavage came out at 0.723.

Regarding C29U A34U, the self-cleavage stood at 0.603.

With C29U A34G, the self-cleavage was determined as 0.657.

In the case of C30A G33U, the self-cleavage came to 0.995.

With C30A G33C, the self-cleavage stood at 0.755.

Turning to C30A G33A, the self-cleavage was 1.21.

Take C29G U32A: the self-cleavage was determined as 0.847.

For the variant C29G U32G, the self-cleavage is 0.553.

For the variant C29G U32C, the self-cleavage turned out to be 0.708.

Consider C29A C30U, for which the self-cleavage came out at 0.41.

Consider C29A C30G, for which the self-cleavage is 0.372.

In the case of C29A C30A, the self-cleavage came out at 0.442.

On to C30A C43A, for which the self-cleavage stood at 0.293.

Take C30A C43G: the self-cleavage was determined as 0.386.

For the variant C30A C43U, the self-cleavage came out at 0.431.

Consider C29G G35A, for which the self-cleavage amounted to 0.637.

Take C29G G35U: the self-cleavage was determined as 0.665.

C29G G35C: the self-cleavage is 0.602.

Regarding C29G, the self-cleavage worked out at 0.766.

C29A: the self-cleavage was found to be 0.708.

Take C29U: the self-cleavage was determined as 0.947.

On to U28G U32A, for which the self-cleavage came to 0.83.

For U28G U32G, the self-cleavage is 0.449.

In the case of U28G U32C, the self-cleavage is 0.664.

As for C30A A42C, the self-cleavage was found to be 0.322.

For the variant C30A A42U, the self-cleavage was found to be 0.312.

As to C30A A42G, the self-cleavage amounted to 0.246.

C29U G35C: the self-cleavage came to 0.778.

In the case of C29U G35U, the self-cleavage worked out at 0.744.

In the case of C29U G35A, the self-cleavage is 0.636.

As for U28C G39A, the self-cleavage was found to be 0.291.

With U28C G39U, the self-cleavage amounted to 0.291.

As to U28C G39C, the self-cleavage amounted to 0.371.

Take U28C A42G: the self-cleavage came out at 0.251.

On to U28C A42C, for which the self-cleavage came to 0.338.

Consider U28C A42U, for which the self-cleavage stood at 0.325.

In the case of C29G G36A, the self-cleavage turned out to be 0.66.

Turning to C29G G36U, the self-cleavage turned out to be 1.01.

On to C29G G36C, for which the self-cleavage was determined as 0.799.

For U28G A37U, the self-cleavage stood at 0.843.

For the variant U28G A37G, the self-cleavage stood at 0.45.

As to U28G A37C, the self-cleavage came to 0.919.

Consider C29U A40C, for which the self-cleavage came to 0.51.

C29U A40G: the self-cleavage turned out to be 0.389.

Take C29U A40U: the self-cleavage was 0.28.

Turning to U28A G33C, the self-cleavage is 1.15.

For U28A G33U, the self-cleavage was determined as 0.884.

As for U28A G33A, the self-cleavage was determined as 0.829.
